Reference: CN114773485A (JIANGSU SIMCERE PHARM CO LTD, dated 2022)
Where “and” joins values, the source holds several entries; their conditions need not be identical. Identical values can stand only once.

Assays:
PD-L1 on CHO-PD-L1 cells [1] = molecular target: T1, PD-L1 on CHO-PD-L1 cells (UniProt Q9NZQ7 19-290, limits assumed); assay: flow cytometry on CHO-PD-L1 cells, anti-human IgG PE
T1 construct: whole, on cells; also called CHO-PD-L1细胞(南京勇山生物科技有限公司); 稳定转染PD-L1的CHO细胞株(GenScript，Cat.M00613)
T1 sequence (Q9NZQ7 19-290 limits assumed): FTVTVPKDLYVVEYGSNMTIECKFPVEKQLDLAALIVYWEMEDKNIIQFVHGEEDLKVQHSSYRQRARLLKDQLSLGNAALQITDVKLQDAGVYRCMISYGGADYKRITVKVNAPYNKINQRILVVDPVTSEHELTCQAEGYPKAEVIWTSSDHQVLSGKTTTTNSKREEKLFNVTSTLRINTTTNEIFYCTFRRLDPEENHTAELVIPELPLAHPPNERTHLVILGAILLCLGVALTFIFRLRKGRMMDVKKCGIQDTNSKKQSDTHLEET

[2] = molecular target: T2, 食蟹猴PD-L1蛋白(Cat.#90251-C08H，Sinobiological) (cynomolgus monkey, UniProt G7PSE7 19-239); assay: SPR, Biacore T200, antibody captured on Protein A chip, 25℃, 1:1 model
T2 construct: Bought protein used as analyte in Biacore; also called 食蟹猴PD-L1-His蛋白; 食蟹猴PD-L1重组蛋白; not shown: His tag
T2 sequence (G7PSE7 entry or part of it C08H C08H): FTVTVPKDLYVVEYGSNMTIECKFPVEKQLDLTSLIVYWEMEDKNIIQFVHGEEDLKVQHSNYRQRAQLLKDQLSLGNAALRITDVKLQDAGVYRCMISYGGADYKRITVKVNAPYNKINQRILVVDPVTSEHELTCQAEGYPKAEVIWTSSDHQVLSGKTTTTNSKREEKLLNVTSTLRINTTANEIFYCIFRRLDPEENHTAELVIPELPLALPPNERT

人PD-L1重组蛋白(Sino …) = molecular target: T3, 人PD-L1重组蛋白(Sino Biological,Cat.10084-H05H) (human, UniProt Q9NZQ7 19-239); assay: competition ELISA, human PD-L1 coated, blocks PD-1-His
T3 construct: also called 人PD-L1蛋白
T3 sequence (Q9NZQ7 19-239 limits assumed): as the sequence (G7PSE7 entry or part of it C08H C08H) above, with T33A, S34A, N62S, Q68R, R82Q, L173F, A185T, I192T, L215H counted along it

[3] = molecular target: T4, PD-L1 on mature human dendritic cells (human, UniProt Q9NZQ7 19-290); assay: flow cytometry on mature human DC, anti-human IgG PE
T4 construct: whole, on cells; also called DC细胞表面PD-L1
T4 sequence (Q9NZQ7 19-290): as the sequence (Q9NZQ7 19-290 limits assumed) above

PD-L1 on CHO-PD-L1 cells [4] = molecular target: T1, PD-L1 on CHO-PD-L1 cells; assay: cell-based or functional assay
重组人TGF-β1蛋白 = molecular target: T5, 重组人TGF-β1蛋白 (human, UniProt P01137 279-390); assay: bridging ELISA: TGF-β1 coated, test molecule, then PD-L1-His and anti-His-HRP
T5 construct: also called 重组人、食蟹猴TGF-β1(Cat.#10804-HNAC，Sinobiological); 人TGF-β1重组蛋白(Novoprotein,Cat.CA59)
T5 sequence (P01137 279-390 limits assumed): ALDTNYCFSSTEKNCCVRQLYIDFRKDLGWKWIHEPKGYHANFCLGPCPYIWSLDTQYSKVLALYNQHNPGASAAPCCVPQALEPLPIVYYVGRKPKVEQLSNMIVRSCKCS

B1: 人源化抗PD-L1抗体156-BM12 (antibody, V domains shown)
VH: QVQLVQSGPELKKPGASVKISCKASGYTFTDYYMNWVRQAPGQSLEWIGDINPNNGDTSYNQKFKGRVTLTRDTSTSTVYMELRSLRSEDTAVYYCARSVMDYWGQGTLVTVSS
VL: EIVLTQSPALLSLSPGERVTLSCSASSSVNYVYWYQQKPGQAPRPLIYLTFNLASGIPARFSGSGSGTDFTLTISSLEPEDFAVYYCQQWSSNPLTFGGGTKVEIK
notes: also called PD-L1单抗156-BM12; 人源化PD-L1抗体
EC50 (PD-L1 on CHO-PD-L1 cells [1]): 0.105 µg/mL | binding result [2]: binds | IC50 (人PD-L1重组蛋白(Sino …)): 0.896 nM and 1.49 nM | EC50 [3]: 0.405 nM | EC50, NFAT luciferase reporter (RLU), Jurkat-PD-1/CHO-PD-L1 (PD-L1 on CHO-PD-L1 cells [4]): 341 ng/ml and 2.15 nM | binding result (重组人TGF-β1蛋白): no binding (tested: 4nM)
